Each block holds one substance with its values, some of them ahead of it.
How the values were obtained:
c-Abl [1] = molecular target: c-Abl (UniProt P00520); experiment: streptavidin precipitation of ligated FcRL1, c-Abl blot; details: reference: wild type; sites Y281
[2] = molecular target: c-Abl SH2 domain, 127-217 (UniProt P00520); experiment: GST-SH2 pull-down from cell lysate; details: reference: wild type; sites Y281
c-Abl [3] = molecular target: c-Abl (UniProt P00520); experiment: GSH-bead precipitation of co-expressed c-Abl–mCherry-GST; details: reference: wild type, sites Y281

binding against the reference (c-Abl [1]): lost | binding against the reference [2]: lost
Substance: FcRL1 (Fc receptor-like 1) (from UniProt Q8R4Y0) Y281F

binding against the reference (c-Abl [3]; BCR ligation): lost
Substance: FcRL1 (Fc receptor-like 1) (from UniProt Q8R4Y0) Y281F, BCR ligation

binding against the reference (c-Abl [3]; FcRL1 ligation): lost
Substance: FcRL1 (Fc receptor-like 1) (from UniProt Q8R4Y0) Y281F, FcRL1 ligation
